From patent US20120244578A1 (Amgen, published 2012)

Key:
mouse FcRn = target: T1, mouse FcRn (mouse, UniProt Q61559 22-297; P01887 21-119, limits assumed); test: BIAcore solution competition (FIG. 6)
T1 sequence (looked up): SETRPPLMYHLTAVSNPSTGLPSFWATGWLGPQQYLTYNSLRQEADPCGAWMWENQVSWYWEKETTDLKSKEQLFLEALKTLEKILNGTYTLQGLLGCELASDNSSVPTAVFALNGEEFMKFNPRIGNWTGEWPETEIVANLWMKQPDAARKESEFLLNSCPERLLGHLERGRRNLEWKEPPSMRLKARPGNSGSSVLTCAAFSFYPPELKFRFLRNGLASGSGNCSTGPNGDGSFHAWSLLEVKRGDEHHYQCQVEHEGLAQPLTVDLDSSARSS
T1 sequence (b2m, looked up): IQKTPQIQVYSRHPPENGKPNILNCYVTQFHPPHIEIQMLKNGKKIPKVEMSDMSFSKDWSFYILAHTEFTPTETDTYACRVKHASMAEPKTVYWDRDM
Experimental: (§1) BIAcore analysis of human and mouse FcRn binding to Fc mutant #1 (Fc K392D-K409D, dimer), #2 (Fc K392D-K409D-Y349T, monomeric SEC profile) and #6 (Fc K392D-K409D-Y349T, monomeric SEC profile) using a BIAcore3000 instrument. CHO cell produced huFc was immobilized on follow cell 2 (Fc2) on a CM5 chip. Fc1 was used as background control. 2 nM human FcRn were incubated with 1, 10, 100 nM of indicated Fc variants for one hour before injected to the CHO huFc surface. Reduced binding of FcRn to the immobilized CHO huFc indicates binding of FcRn to the Fc variants in solution. 2 nM mouse FcRn were incubated with 0.1, 1, 10 nM of Fc variants for one hour before injected to the CHO huFc surface.

human FcRn = target: T2, human FcRn (human, UniProt P55899 24-297; P61769 21-119, limits assumed); test: BIAcore solution competition (FIG. 6)
T2 construct: also called neonatal Fc-receptor
Experimental: as §1

T2 sequence (P55899 24-297 limits assumed, chain 1 of 2): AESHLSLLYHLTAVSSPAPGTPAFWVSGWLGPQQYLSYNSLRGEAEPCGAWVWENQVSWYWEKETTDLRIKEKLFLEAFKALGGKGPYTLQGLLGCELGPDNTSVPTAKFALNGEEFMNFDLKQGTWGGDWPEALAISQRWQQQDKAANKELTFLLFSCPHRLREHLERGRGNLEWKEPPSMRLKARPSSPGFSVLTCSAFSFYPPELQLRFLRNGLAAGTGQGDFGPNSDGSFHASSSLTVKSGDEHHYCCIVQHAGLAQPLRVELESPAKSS
T2 sequence (P61769 21-119 limits assumed, chain 2 of 2): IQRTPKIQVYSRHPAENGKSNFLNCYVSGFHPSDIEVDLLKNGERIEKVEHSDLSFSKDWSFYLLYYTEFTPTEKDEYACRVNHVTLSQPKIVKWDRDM

B1: hu IgG1 Fc K392D K409D Y349T (construct 2 of Table 2) (other, human, UniProt P01857-1 114-330, looked up, name in EU numbering)
chain: APELLGGPSVFLFPPKPKDTLMISRTPEVTCVVVDVSHEDPEVKFNWYVDGVEVHNAKTKPREEQYNSTYRVVSVLTVLHQDWLNGKEYKCKVSNKALPAPIEKTISKAKGQPREPQVTTLPPSRDELTKNQVSLTCLVKGFYPSDIAVEWESNGQPENNYDTTPPVLDSDGSFFLYSDLTVDKSRWQQGNVFSCSVMHEALHNHYTQKSLSLSPGK
notes: domain: Fc; Monomer by SEC and AUC; also called Fc mutant #2; Monomer Fc
binding result (mouse FcRn): binds
binding result (human FcRn): binds
